Measurements: patent US20090149339A1 (published 2009)
Ends that are not written are not given here. * marks the point of attachment. Biotin = O=C1N[C@H]2[C@H](CS[C@H]2CCCCC(=O)*)N1

B1: CD49E (alpha-4) C-terminal PL peptide AA11L, biotinylated (peptide)
peptide: Biotin-PYGTAMEKAQLKPPATSDA
B2: BLR-1 C-terminal PL peptide AA45L, biotinylated (peptide)
peptide: Biotin-PSWRRSSLSESENATSLTTF

molecular target: GST-TIAM1 PDZ domain fusion protein (T-lymphoma invasion and metastasis inducing protein 1 AA1001-1088); PDZ 1 … (UniProt P08515 1-218 = GST); assay: A/G assays
Sequence (P08515 1-218, tags or fused parts left off): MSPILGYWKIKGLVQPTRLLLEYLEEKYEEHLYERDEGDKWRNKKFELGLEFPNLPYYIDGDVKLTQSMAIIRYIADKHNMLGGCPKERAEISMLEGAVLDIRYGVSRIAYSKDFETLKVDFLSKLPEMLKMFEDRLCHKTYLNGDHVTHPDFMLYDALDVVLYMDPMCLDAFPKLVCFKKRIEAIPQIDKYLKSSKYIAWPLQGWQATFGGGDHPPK

| Binder | binding result |
| --- | --- |
| B1 | no binding |
| B2 | no binding |

molecular target: GST-LIMK2 PDZ domain fusion protein (human LIM domain kinase 2 AA185-275; PDZ domain 1 of 1) (human, UniProt P08515 1-218 = GST); assay: A/G assays
Sequence (P08515 1-218, tags or fused parts left off): as above

| Binder | binding result |
| --- | --- |
| B1 | no binding |
| B2 | no binding |

molecular target: T1, GST-TAX43 PDZ domain fusion protein (human tax interaction protein 43 AA15-85; PDZ domain 1 of 1) (human, UniProt P08515 1-218 = GST); assay: A/G assays
T1 construct: also called TX 43

| Binder | binding result |
| --- | --- |
| B1 | no binding |
| B2 | no binding |

molecular target: GST-MPP1 PDZ domain fusion protein (55 Kd erythrocyte membrane protein AA101-186; PDZ domain 1 of 1) (UniProt P08515 1-218 = GST); assay: A/G assays
Sequence (P08515 1-218, tags or fused parts left off): as above

| Binder | binding result |
| --- | --- |
| B1 | no binding |
| B2 | no binding |

molecular target: T2, GST-RGS12 PDZ domain fusion protein (human regulator of G-protein signalling 12 AA35-103; PDZ domain 1 of 1) (human, UniProt P08515 1-218 = GST); assay: A/G assays
T2 construct: also called RSG12
T2 sequence (P08515 1-218, tags or fused parts left off): as above

| Binder | binding result |
| --- | --- |
| B1 | no binding |
| B2 | no binding |

molecular target: GST-LIM PDZ domain fusion protein (Human LIM protein AA29-112; PDZ domain 1 of 1) (human, UniProt P08515 1-218 = GST); assay: A/G assays

| Binder | binding result |
| --- | --- |
| B1 | no binding |
| B2 | no binding |

molecular target: T3, GST-CBP PDZ domain fusion protein (Cytohesin binding protein HE AA85-175; PDZ domain 1 of 1) (UniProt P08515 1-218 = GST); assay: A/G assays
T3 construct: also called Prot
T3 sequence (P08515 1-218, tags or fused parts left off): as above

| Binder | binding result |
| --- | --- |
| B1 | no binding |
| B2 | no binding |

molecular target: T4, GST-TAX40 PDZ domain fusion protein (human tax interaction protein 40 AA35-137; PDZ domain 1 of 1) (human, UniProt P08515 1-218 = GST); assay: A/G assays
T4 construct: also called TX 40
T4 sequence (P08515 1-218, tags or fused parts left off): as above

| Binder | binding result |
| --- | --- |
| B1 | no binding |
| B2 | no binding |

molecular target: GST-PSD95 PDZ domain fusion protein (human post-synaptic density protein 95 AA387-724; PDZ domains 1-3 of 3) (human, UniProt P08515 1-218 = GST); assay: A/G assays
Sequence (P08515 1-218, tags or fused parts left off): as above

| Binder | binding result |
| --- | --- |
| B1 | no binding |
| B2 | no binding |

molecular target: T5, GST-CASK PDZ domain fusion protein (CASK AA495-584; PDZ domain 1 of 1) (mouse, UniProt P08515 1-218 = GST); assay: A/G assays
T5 construct: also called mCASK

| Binder | binding result |
| --- | --- |
| B1 | no binding |
| B2 | no binding |

molecular target: T6, GST-TAX33 PDZ domain fusion protein (tax interaction protein 33 AA73-162; PDZ domain 1 of 1) (UniProt P08515 1-218 = GST); assay: A/G assays
T6 construct: also called TX33
T6 sequence (P08515 1-218, tags or fused parts left off): as above

| Binder | binding result |
| --- | --- |
| B1 | no binding |
| B2 | no binding |

molecular target: GST-prIL16 PDZ domain fusion protein (putative interleukin 16 precursor AA170-383; PDZ domains 1-2 of 2) (UniProt P08515 1-218 = GST); assay: A/G assays
Sequence (P08515 1-218, tags or fused parts left off): as above

| Binder | binding result |
| --- | --- |
| B1 | no binding |
| B2 | no binding |

molecular target: T7, GST-NeDLG PDZ domain fusion protein (presynaptic protein sao102, neuroendocrine-dlg; PDZ domains 1-2 of 3) (UniProt P08515 1-218 = GST); assay: A/G assays
T7 construct: also called NeDLG1
T7 sequence (P08515 1-218, tags or fused parts left off): as above

| Binder | binding result |
| --- | --- |
| B1 | no binding |
| B2 | no binding |

molecular target: GST-NOS1 PDZ domain fusion protein (human neuronal nitric oxide synthase; PDZ domain 1 of 1) (human, UniProt P08515 1-218 = GST); assay: A/G assays
Sequence (P08515 1-218, tags or fused parts left off): as above

| Binder | binding result |
| --- | --- |
| B1 | no binding |
| B2 | no binding |

molecular target: T8, GST-KIAA0303 PDZ domain fusion protein (KIAA0303 AA652-742; PDZ domain 1 of 1) (UniProt P08515 1-218 = GST); assay: A/G assays
T8 construct: also called K303

| Binder | binding result |
| --- | --- |
| B1 | no binding |
| B2 | no binding |

molecular target: T9, GST-KIAA0316 PDZ domain fusion protein (KIAA0316 AA197-284; PDZ domain 1 of 1) (UniProt P08515 1-218 = GST); assay: A/G assays
T9 construct: also called K316
T9 sequence (P08515 1-218, tags or fused parts left off): as above

| Binder | binding result |
| --- | --- |
| B1 | no binding |
| B2 | no binding |

molecular target: T10, GST-SYN1a PDZ domain fusion protein (alpha1-syntrophin AA96-189; PDZ domain 1 of 1) (UniProt P08515 1-218 = GST); assay: A/G assays
T10 construct: also called SYN 1 alpha; SYNTR 1 alpha
T10 sequence (P08515 1-218, tags or fused parts left off): as above

| Binder | binding result |
| --- | --- |
| B1 | no binding |
| B2 | no binding |

molecular target: T11, GST-KIAA0559 PDZ domain fusion protein (KIAA0559 AA766-870; PDZ1 of 1) (UniProt P08515 1-218 = GST); assay: A/G assays
T11 construct: also called K559
T11 sequence (P08515 1-218, tags or fused parts left off): as above

| Binder | binding result |
| --- | --- |
| B1 | no binding |
| B2 | no binding |

molecular target: T12, GST-41.8 kD PDZ domain fusion protein (hypothetical 41.8 kD protein AA4-85; PDZ domain 1 of 1) (UniProt P08515 1-218 = GST); assay: A/G assays
T12 construct: also called hypoth
T12 sequence (P08515 1-218, tags or fused parts left off): as above

| Binder | binding result |
| --- | --- |
| B2 | no binding |

molecular target: GST-PTN-4 PDZ domain fusion protein (protein-tyrosine phosphatase meg1 AA774-862; PDZ domain 1 of 1) (UniProt P08515 1-218 = GST); assay: A/G assays
Sequence (P08515 1-218, tags or fused parts left off): as above

| Binder | binding result |
| --- | --- |
| B1 | no binding |
| B2 | no binding |

molecular target: GST-AF6 PDZ domain fusion protein (af-6 protein AA985-1077; PDZ domain 1 of 1) (UniProt P08515 1-218 = GST); assay: A/G assays
Sequence (P08515 1-218, tags or fused parts left off): as above

| Binder | binding result |
| --- | --- |
| B1 | no binding |
| B2 | no binding |

molecular target: GST-MINT3 PDZ domain fusion protein (human MINT3 AA11-52; PDZ domain 1 of 1) (human, UniProt P08515 1-218 = GST); assay: A/G assays
Sequence (P08515 1-218, tags or fused parts left off): as above

| Binder | binding result |
| --- | --- |
| B1 | no binding |
| B2 | no binding |

molecular target: GST-DVL1 PDZ domain fusion protein (human dishevelled segment polarity protein homolog AA248-340); PDZ domain … (human, UniProt P08515 1-218 = GST); assay: A/G assays
Sequence (P08515 1-218, tags or fused parts left off): as above

| Binder | binding result |
| --- | --- |
| B1 | no binding |
| B2 | no binding |

molecular target: T13, GST-TAX2 PDZ domain fusion protein (human tax interaction protein 2 AA54-140; PDZ domain 1 of 1) (human, UniProt P08515 1-218 = GST); assay: A/G assays
T13 construct: also called TX 2
T13 sequence (P08515 1-218, tags or fused parts left off): as above

| Binder | binding result |
| --- | --- |
| B1 | no binding |
| B2 | no binding |

molecular target: T14, GST-MPP2 PDZ domain fusion protein (maguk p55 subfamily member 2 (DLG2) AA185-273; PDZ domain 1 of 1) (UniProt P08515 1-218 = GST); assay: A/G assays
T14 construct: also called MMP2
T14 sequence (P08515 1-218, tags or fused parts left off): as above

| Binder | binding result |
| --- | --- |
| B1 | no binding |
| B2 | no binding |

molecular target: T12, GST-41.8 kD PDZ domain fusion protein …; assay: A and G assays

| Binder | binding result |
| --- | --- |
| B1 | binds |
